This passage reports Km and Vmax results from ChEMBL document CHEMBL4321859, “Unforeseen Possibilities To Investigate the Regulation of Polyamine Metabolism Revealed by Novel C-Methylated Spermine Derivatives” (J Med Chem, 2019).

Substrate in this data set: CC(CN)CNCCCCNCC(C)CN
As to the kind of experiment: Substrate activity at recombinant human SMOX assessed as Km at 2000 to 6000 uM. The format is ADME.

B1: Spermine oxidase (Homo sapiens) (protein)
chain: MQSCESSGDSADDPLSRGLRRRGQPRVVVIGAGLAGLAAAKALLEQGFTDVTVLEASSHIGGRVQSVKLGHATFELGATWIHGSHGNPIYHLAEANGLLEETTDGERSVGRISLYSKNGVACYLTNHGRRIPKDVVEEFSDLYNEVYNLTQEFFRHDKPVNAESQNSVGVFTREEVRNRIRNDPDDPEATKRLKLAMIQQYLKVESCESSSHSMDEVSLSAFGEWTEIPGAHHIIPSGFMRVVELLAEGIPAHVIQLGKPVRCIHWDQASARPRGPEIEPRGEGDHNHDTGEGGQGGEEPRGGRWDEDEQWSVVVECEDCELIPADHVIVTVSLGVLKRQYTSFFRPGLPTEKVAAIHRLGIGTTDKIFLEFEEPFWGPECNSLQFVWEDEAESHTLTYPPELWYRKICGFDVLYPPERYGHVLSGWICGEEALVMEKCDDEAVAEICTEMLRQFTGNPNIPKPRRILRSAWGSNPYFRGSYSYTQVGSSGADVEKLAKPLPYTESSKTAPMQVLFSGEATHRKYYSTTHGALLSGQREAARLIEMYRDLFQQGT
Broadly, the Km is the substrate concentration at which the rate is half of its maximum. A word on the Vmax: it is the rate approached at saturating substrate. Consider B1, for which the Km worked out at 121 µM and the Vmax was found to be 0.124 µmol/min/mg.
